In article doi:10.1101/2020.09.06.285171:

Molecular target: EGFP-MYO10-MYO7B chimeric myosin (Bos taurus (Bt) | human (Hs)) (UniProt P79114)
Experiment: in-cell filopodial tip enrichment assay with a chimeric myosin

UniProt P79114, sequence (P79114 whole entry, change not shown): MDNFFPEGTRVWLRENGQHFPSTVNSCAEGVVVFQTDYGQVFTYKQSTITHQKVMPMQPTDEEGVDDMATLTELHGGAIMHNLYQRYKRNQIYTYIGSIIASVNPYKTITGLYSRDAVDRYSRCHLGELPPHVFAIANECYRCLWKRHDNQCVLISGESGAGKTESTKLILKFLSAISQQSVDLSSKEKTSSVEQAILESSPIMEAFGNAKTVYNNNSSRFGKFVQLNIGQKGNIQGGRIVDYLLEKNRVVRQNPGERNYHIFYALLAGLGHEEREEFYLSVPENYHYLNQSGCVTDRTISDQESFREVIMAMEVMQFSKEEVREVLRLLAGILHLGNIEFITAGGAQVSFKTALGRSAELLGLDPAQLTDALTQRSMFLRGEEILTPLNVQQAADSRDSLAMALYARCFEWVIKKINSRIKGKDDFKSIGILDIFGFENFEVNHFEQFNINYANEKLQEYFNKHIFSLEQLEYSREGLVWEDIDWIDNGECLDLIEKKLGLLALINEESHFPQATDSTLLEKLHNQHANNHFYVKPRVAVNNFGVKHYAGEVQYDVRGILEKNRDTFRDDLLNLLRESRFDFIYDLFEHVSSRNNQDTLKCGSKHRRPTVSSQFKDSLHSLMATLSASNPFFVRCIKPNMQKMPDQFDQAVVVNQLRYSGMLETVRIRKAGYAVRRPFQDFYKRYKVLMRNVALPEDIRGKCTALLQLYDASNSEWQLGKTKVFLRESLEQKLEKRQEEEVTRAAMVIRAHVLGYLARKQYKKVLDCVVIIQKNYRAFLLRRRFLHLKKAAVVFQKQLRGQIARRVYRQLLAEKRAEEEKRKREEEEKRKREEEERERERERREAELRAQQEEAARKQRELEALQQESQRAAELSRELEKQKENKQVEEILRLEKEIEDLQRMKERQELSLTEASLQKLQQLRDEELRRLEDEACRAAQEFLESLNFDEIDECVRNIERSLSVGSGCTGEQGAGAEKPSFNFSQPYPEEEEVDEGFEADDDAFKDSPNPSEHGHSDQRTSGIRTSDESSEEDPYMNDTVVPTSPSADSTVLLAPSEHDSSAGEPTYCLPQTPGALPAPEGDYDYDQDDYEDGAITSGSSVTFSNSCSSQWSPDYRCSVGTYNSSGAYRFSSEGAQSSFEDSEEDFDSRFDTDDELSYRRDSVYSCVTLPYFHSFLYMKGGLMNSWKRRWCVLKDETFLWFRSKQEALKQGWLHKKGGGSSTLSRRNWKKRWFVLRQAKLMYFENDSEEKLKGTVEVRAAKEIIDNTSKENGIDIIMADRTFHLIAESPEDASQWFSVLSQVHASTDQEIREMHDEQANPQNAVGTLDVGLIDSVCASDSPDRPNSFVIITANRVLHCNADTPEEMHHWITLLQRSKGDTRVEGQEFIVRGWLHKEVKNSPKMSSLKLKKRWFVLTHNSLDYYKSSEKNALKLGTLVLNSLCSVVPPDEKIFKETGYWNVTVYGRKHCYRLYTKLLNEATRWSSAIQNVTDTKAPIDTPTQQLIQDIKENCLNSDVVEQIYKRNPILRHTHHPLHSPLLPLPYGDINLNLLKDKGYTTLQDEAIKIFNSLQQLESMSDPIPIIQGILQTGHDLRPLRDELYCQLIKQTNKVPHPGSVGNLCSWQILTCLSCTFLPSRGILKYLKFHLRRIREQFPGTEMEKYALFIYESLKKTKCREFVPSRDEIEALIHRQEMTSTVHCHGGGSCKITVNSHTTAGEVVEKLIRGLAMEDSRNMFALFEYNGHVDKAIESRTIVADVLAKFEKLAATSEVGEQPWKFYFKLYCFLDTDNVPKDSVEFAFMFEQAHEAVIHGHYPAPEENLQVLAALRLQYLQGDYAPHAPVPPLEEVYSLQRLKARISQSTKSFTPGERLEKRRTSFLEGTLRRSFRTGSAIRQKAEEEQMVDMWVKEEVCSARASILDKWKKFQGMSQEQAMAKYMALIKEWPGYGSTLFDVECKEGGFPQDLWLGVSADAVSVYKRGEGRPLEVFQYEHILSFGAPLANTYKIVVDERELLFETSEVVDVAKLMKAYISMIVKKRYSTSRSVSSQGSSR

Binder	fold enrichment at filopodial tips relative to MYO10MD [fold]
mCherry-ANKS4B (ankyrin repeat and sterile a motif domain containing 4B) (natural protein) MSTRYHQAASDSYLELLKEATKRDLNLSDEDGMTPTLLAAYHGNLEALEIICSRGGDPDRCDIWGNTPLHFAASNGHAHCVSFLVNFGANIFALDNDLQTPLDAAASREQNECVALLDKAATAQNIMNPKKVTRLKEQAQKNARRQIKECERLQEKHQNKMAHTYSKEESGTLSSSKGTFSRSSPSNASAPGTFGSLSKGIKDTFKIKFKKNKDTAEQVGKEGRSGQRNVMEVFREEEEDSFSGDFKEKLQLSAEEDGSVHHESILNRPGLGSIVFRRNRISSPEDISDSKREFGFKLPSELLQRQGASEADEGAADEEGEENGLKDDLPWDDDEVEWEEDVVDATPLEVFLLSQHLEEFLPIFKREQIDLEALLLCSDEDLQSIQMQLGPRKKVLNAINRRKQVLQQPGQLVDTSL	3
mCherry-USH1C (harmonin/Usher syndrome 1C) (natural protein) MDRKVAREFRHKVDFLIENDAEKDYLYDVLRMYHQTMDVAVLVGDLKLVINEPSRLPLFDAIRPLIPLKHQVEYDQLTPRRSRKLKEVRLDRLHPEGLGLSVRGGLEFGCGLFISHLIKGGQADSVGLQVGDEIVRINGYSISSCTHEEVINLIRTKKTVSIKVRHIGLIPVKSSPDEPLTWQYVDQFVSESGGVRGSLGSPGNRENKEKKVFISLVGSRGLGCSISSGPIQKPGIFISHVKPGSLSAEVGLEIGDQIVEVNGVDFSNLDHKEAVNVLKSSRSLTISIVAAAGRELFMTDRERLAEARQRELQRQELLMQKRLAMESNKILQEQQEMERQRRKEIAQKAAEENERYRKEMEQIVEEEEKFKKQWEEDWGSKEQLLLPKTITAEVHPVPLRKPKYDQGVEPELEPADDLDGGTEEQGEQDFRKYEEGFDPYSMFTPEQIMGKDVRLLRIKKEGSLDLALEGGVDSPIGKVVVSAVYERGAAERHGGIVKGDEIMAINGKIVTDYTLAEAEAALQKAWNQGGDWIDLVVAVCPPKEYDDELTFF	3
